Measurements published in patent US20250034551A1, “METHODS AND SYSTEMS FOR HIGH-THROUGHPUT BIOCHEMICAL SCREENS” (THINK BIOSCIENCE, INC., priority 2021, published 2025).

B1: Striatum-enriched protein-tyrosine phosphatase catalytic domain (STEP282-563) (protein)
chain: MSSGVDLGTENLYFQSMSRVLQAEELHEKALDPFLLQAEFFEIPMNFVDPKEYDIPGLVRKNRYKTILPNPHSRVCLTSPDPDDPLSSYINANYIRGYGGEEKVYIATQGPIVSTVADFWRMVWQEHTPIIVMITNIEEMNEKCTEYWPEEQVAYDGVEITVQKVIHTEDYRLRLISLKSGTEERGLKHYWFTSWPDQKTPDRAPPLLHLVREVEEAAQQEGPHCAPIIVHCSAGIGRTGCFIATSICCQQLRQEGVVDILKTTCQLRQDRGGMIQTCEQYQFVHHVMSLYEKQLSHQS

Columns and labels:
[1] = biological target: RpoZ-MidT fusion with the HIV-1 protease recognition sequence in the linker (number of flanking alanines not stated) (UniProt P0A800)
Chain of RpoZ-MidT fusion with the HIV-1 protease recognition sequence in the linker (number of flanking alanines not stated) (P0A800 whole entry, looked up, the tested form may be a part): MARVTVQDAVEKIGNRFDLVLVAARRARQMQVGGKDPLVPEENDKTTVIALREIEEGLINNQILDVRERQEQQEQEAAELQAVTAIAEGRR

[2] = biological target: RpoZ-MidT fusion with the 3CLpro recognition sequence in the linker (number of flanking alanines not stated) (UniProt P0A800)
Chain of RpoZ-MidT fusion with the 3CLpro recognition sequence in the linker (number of flanking alanines not stated) (P0A800 whole entry, looked up, the tested form may be a part): as above

[3] = biological target: RpoZ-MidT fusion with the PLpro recognition site LRGG in the linker (UniProt P0A800)
Chain of RpoZ-MidT fusion with the PLpro recognition site LRGG in the linker (P0A800 whole entry, looked up, the tested form may be a part): as above

[4] = biological target: RpoZ-MidT fusion with AAAA_Ubiquitin_AAAA added to the linker (UniProt P0A800)
Chain of RpoZ-MidT fusion with AAAA_Ubiquitin_AAAA added to the linker (P0A800 whole entry, looked up, the tested form may be a part): as above

[5] = biological target: kinase substrate domain (MidT) fused to the omega subunit of RNA polymerase (RpoZ), no protease recognition site in the linker, P0A800
Chain of kinase substrate domain (MidT) fused to the omega subunit of RNA polymerase (RpoZ), no protease recognition site in the linker, P0A800 (P0A800 whole entry, looked up, the tested form may be a part): as above

Molecule | LuxAB luminescence response to protease overexpression [1] | LuxAB luminescence response to protease overexpression [2] | LuxAB luminescence response to protease overexpression [3] | LuxAB luminescence response to protease overexpression [4] | spectinomycin resistance of E. coli with the PTP-specific B2H [5]
HIV-1 protease | HIVpro appeared functional with all sites, which was behavior consistent with its reported promiscuity | HIVpro appeared functional with all sites, which was behavior consistent with its reported promiscuity | HIVpro appeared functional with all sites, which was behavior consistent with its reported promiscuity | HIVpro appeared functional with all sites, which was behavior consistent with its reported promiscuity | –
B1 | – | – | – | – | did not yield functional two-hybrid systems, most likely due to low activity against the MidT substrate
